Source: the RNAGym collection of RNA variant scans (doi:10.1038/ncomms11558)

B1: mRNA-splicing (parent)
chain: GAUCCAGAUCUAACUUGGGGUGGCUUUGUCUUCUUCUUUUGCCAAUUCCACUAAUUGUUUGGG

Variants of: B1
Assay: exon inclusion enrichment score (log2 ratio to wild type); higher = more inclusion; FAS exon 6 minigene, HEK293

Row | Variant | exon inclusion enrichment score
1 | G20U | -2.17
2 | G20C | 0
3 | G20A | 0.232
4 | G1U | -5.1
5 | G1C | -4.23
6 | G1A | -3.07
7 | A6G | 0.571
8 | A6C | -0.522
9 | A6U | -0.25
10 | U60A | -2.55
11 | U60G | -0.709
12 | U60C | -0.19
13 | U25C | 0.429
14 | U25G | 0.284
15 | U25A | 0.211
16 | C14G | -0.135
17 | C14U | -0.791
18 | C14A | -0.554
19 | C33G | -2.4
20 | C33A | -3.75
21 | C33U | -4.54
22 | U26C | -0.07
23 | U26A | 0.39
24 | U26G | -0.547

Row | Variant | exon inclusion enrichment score
25 | A45G | -0.008
26 | A45U | -1.33
27 | A45C | -3.69
28 | U21A | 0.125
29 | U21C | 0.243
30 | U21G | -5.29
31 | A13C | 1.26
32 | A13G | -0.194
33 | A13U | -0.29
34 | C49G | 0.869
35 | C49U | -0.226
36 | C49A | 1.46
37 | C43U | -2.69
38 | C43G | 0.061
39 | C43A | -0.47
40 | G28C | -1.84
41 | G28A | -1.07
42 | G28U | -1.36
43 | A54C | 0.187
44 | A54U | -0.013
45 | A54G | -0.319
46 | U56A | -0.713
47 | U56C | 0.215
48 | U56G | 0.059

Row | Variant | exon inclusion enrichment score
49 | U58C | -0.116
50 | U58A | 0.099
51 | U58G | -0.27
52 | U27G | -0.115
53 | U27A | -0.647
54 | U27C | 0.72
55 | C4G | -0.794
56 | C4A | -2.11
57 | C4U | -2.86
58 | A44C | -0.731
59 | A44G | 0.314
60 | A44U | -1.32
61 | C51A | -1.68
62 | C51U | -1.53
63 | C51G | 0.038
64 | C42A | -0.179
65 | C42G | -0.175
66 | C42U | -1.2
67 | C30U | -2.3
68 | C30A | -0.973
69 | C30G | -0.286
70 | U46G | 0.344
71 | U46C | 0.336
72 | U46A | 0.041

Row | Variant | exon inclusion enrichment score
73 | U29A | 0.257
74 | U29G | -3.82
75 | U29C | 0.119
76 | G61C | 0.061
77 | G61U | -0.154
78 | G61A | -1.32
79 | A2U | -0.046
80 | A2G | 0.511
81 | A2C | -0.31
82 | U37A | 0.26
83 | U37C | 0.225
84 | U37G | 0.33
85 | U47A | -0.214
86 | U47G | -1.62
87 | U47C | -2.08
88 | C5A | -0.066
89 | C5G | -0.076
90 | C5U | -4.59
91 | U3C | -0.472
92 | U3G | -0.136
93 | U3A | -0.683
94 | G23C | -0.164
95 | G23A | 0.238
96 | G23U | -0.765

Row | Variant | exon inclusion enrichment score
97 | U9G | -0.183
98 | U9A | -0.097
99 | U9C | 1.28
100 | U11A | 0.08
101 | U11C | 0.559
102 | U11G | 0.304
103 | U15C | 0.272
104 | U15A | -0.077
105 | U15G | 0.039
106 | G7C | -0.443
107 | G7U | -2.07
108 | G7A | -1.15
109 | G57U | 0.003
110 | G57A | -0.066
111 | G57C | -0.537
112 | U38A | -0.025
113 | U38G | 0.274
114 | U38C | 0.106
115 | U40C | 0.287
116 | U40A | -2.39
117 | U40G | 0.275
118 | C36A | -0.688
119 | C36G | -0.112
120 | C36U | -2.31

Row | Variant | exon inclusion enrichment score
121 | U55G | 0.117
122 | U55C | 0.069
123 | U55A | 0.386
124 | A50G | 0.131
125 | A50U | -1.12
126 | A50C | -3.91
127 | C48G | -1.23
128 | C48A | -1.74
129 | C48U | -2.35
130 | U31G | -1.2
131 | U31A | 0.242
132 | U31C | -0.076
133 | U39A | 0.361
134 | U39C | 0.236
135 | U39G | 0.267
136 | G17C | -0.067
137 | G17A | -2.56
138 | G17U | -0.191
139 | C24A | 0.043
140 | C24G | -6.71
141 | C24U | -1.64
142 | G62U | -0.581
143 | G62A | -0.115
144 | G62C | -0.199

Row | Variant | exon inclusion enrichment score
145 | G22A | -2.09
146 | G22U | -0.589
147 | G22C | 0.067
148 | U16G | -0.702
149 | U16C | 0.271
150 | U16A | -0.773
151 | G63A | -5.7
152 | G63U | -5.1
153 | G63C | -6.23
154 | U34C | -0.17
155 | U34G | 0.283
156 | U34A | -0.179
157 | C10A | -0.393
158 | C10U | 0.024
159 | C10G | -0.124
160 | G18U | 0.258
161 | G18C | 0.301
162 | G18A | -0.636
163 | G19U | 0.032
164 | G19A | 0.892
165 | G19C | 0.027
166 | A8G | 0.152
167 | A8C | 0.321
168 | A8U | -0.416

Row | Variant | exon inclusion enrichment score
169 | G41A | -0.772
170 | G41U | -1.24
171 | G41C | -1.66
172 | U35A | -0.045
173 | U35C | 0.127
174 | U35G | 0.167
175 | U52A | 0.166
176 | U52C | 0.564
177 | U52G | 0.635
178 | U59A | -0.31
179 | U59C | -0.032
180 | U59G | -0.228
181 | A12U | -0.405
182 | A12C | 0.251
183 | A12G | 0.431
184 | U32C | -0.05
185 | U32G | 0.176
186 | U32A | -0.129
187 | A53C | -0.152
188 | A53U | -0.046
189 | A53G | 0.229
